{"source": "paper PMC2836074", "about": "(The Journal of Biological Chemistry, 2009)", "key": {"EGFP-F1LΔBH1": {"molecular_target": "EGFP-F1LΔBH1 (vaccinia virus strain Copenhagen, UniProt P68450 1-226, lacks amino acids 144–156)", "test": "co-IP"}, "EGFP-F1LΔBH3": {"molecular_target": "EGFP-F1LΔBH3 (vaccinia virus strain Copenhagen, UniProt P68450 1-226, lacks amino acids 93–108)", "test": "co-IP"}}, "data": [{"binder": "HA-Bak (natural protein) MASGQGPGPPRQECGEPALPSASEEQVAQDTEEVFRSYVFYRHQQEQEAEGVAAPADPEMVTLPLQPSSTMGQVGRQLAIIGDDINRRYDSEFQTMLQHLQPTAENAYEYFTKIATSLFESGINWGRVVALLGFGYRLALHVYQHGLTGFLGQVTRFVVDFMLHHCIARWIAQRGGWVAALNLGNGPILNVLVVLGVVLLGQFVVRRFFKS", "values": [{"measurement": "fold decrease in Bak binding compared with wild-type F1L", "setting": "EGFP-F1LΔBH1", "result": 8, "unit": "fold"}, {"measurement": "fold decrease in Bak binding compared with wild-type F1L", "setting": "EGFP-F1LΔBH3", "result": 3, "unit": "fold"}]}]}
